Laboratory results: paper PMC6703946 (Molecular microbiology, 2019)

Target: T1, Spx with N-terminal His6 tag (S. aureus, UniProt P60379 1-131)
T1 sequence (looked up): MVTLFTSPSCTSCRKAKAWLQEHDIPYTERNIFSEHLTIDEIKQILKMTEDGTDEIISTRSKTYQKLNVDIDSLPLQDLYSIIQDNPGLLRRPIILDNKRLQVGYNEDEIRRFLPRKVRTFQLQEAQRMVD
Experiment: native gel or EMSA

B1: αCTD (residues 245 to 314 of the RNA polymerase α subunit RpoA) (domain or fragment, S. aureus, UniProt Q2FW32 245-314, looked up)
chain: KEKVLEMSIEELDLSVRSYNCLKRAGINSVQELADKSEADMMKVRNLGRKSLEEVKYKLEDLGLGLRKED
binding result: binds
